# Source: patent US20260035464A1 (STAIDSON BIOPHARMA, published 2026)
# T1: human BTLA extracellular domain with C-terminal 10xHis tag (human, UniProt Q7Z6A9 31-157)
# T1 construct: also called HuBTLA-His; His-tag-huBTLA
# T1 sequence: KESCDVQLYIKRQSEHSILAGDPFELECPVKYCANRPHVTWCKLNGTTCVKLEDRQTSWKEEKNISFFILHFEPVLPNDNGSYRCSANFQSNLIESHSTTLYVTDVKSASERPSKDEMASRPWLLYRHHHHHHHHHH
# T2: extracellular domain of human BTLA with FAS, expressed on Jurkat cells (human, UniProt Q7Z6A9 31-157; P25445 174-335, limits assumed)
# T2 sequence (looked up): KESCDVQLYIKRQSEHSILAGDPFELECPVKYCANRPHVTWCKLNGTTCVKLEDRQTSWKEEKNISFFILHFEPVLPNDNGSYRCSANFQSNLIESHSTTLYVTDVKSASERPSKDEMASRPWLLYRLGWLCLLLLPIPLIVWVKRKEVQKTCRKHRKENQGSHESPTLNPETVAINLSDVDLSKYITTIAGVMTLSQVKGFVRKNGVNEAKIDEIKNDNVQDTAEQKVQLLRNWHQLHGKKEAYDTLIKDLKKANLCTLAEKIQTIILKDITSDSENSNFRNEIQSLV
# Tests used:
# [1] = biological target: T3, human BTLA (Uniprot Q7Z6A9) expressed on cells (human, UniProt Q7Z6A9 31-289); assay: flow cytometry blocking assay on huBTLA-overexpressing Expi293 cells, antibody titrated, soluble human HVEM-mouse IgG2a Fc detected
# T3 construct: whole, on cells; also called huBTLA-overexpressing Expi293 cells
# Protocol: Expi293 cells stably overexpressing huBTLA were incubated with chimeric anti-BTLA antibody 83F2 or 86B7 for 30 minutes at 4° C. The cells were washed, and then incubated with human HVEM-mouse IgG2a Fc recombinant protein (Acro Biosystems, cat #HVM-H5255) at […] concentration for 20 minutes at 4° C. The human HVEM bindings were detected by goat anti-mouse Alexa 488 secondary antibody (ThermoFisher, cat #A-11029). Cells were washed and acquired by flow cytometry with Attune. Data were analyzed with FlowJo software. BTLA binding is represented as MFI.
# FACS based blocking assays of humanized anti-BTLA antibodies were performed as described above in Example 3.
# [2] = biological target: T1, human BTLA extracellular domain with …; assay: BLI (Octet RED96), antibody on AHC biosensor, His-tag-huBTLA in solution
# Protocol: (§1) The following kinetic assay was performed using anti-human IgG Fc capture (AHC) biosensors (ForteBio) in kinetics buffer (PBS, 0.1% Tween-20 and 1% bovine serum albumin): (a) antibody (2 μg/mL) for 300 sec, (b) baseline for 120 sec, (c) association with purified His-tag-huBTLA (2.5, 0.5 and 0 μg/mL) and His-tag-rhesus monkey BTLA (Sino Biologcal, cat #90250-C08H) (2.5, 0.5 and 0 μg/mL) for 420 sec and (d) dissociation for 1200 sec. Data fitting and analysis was performed with Octet data analysis software 8.0 (ForteBio) using a 1:1 binding model after Savitzky-Golay filtering.
# (§2) Binding affinities (monovalent Kd) of humanized anti-BTLA antibodies were determined using Biolayer interferometry on the Octet RED96 instrument (ForteBio) as described above in Example 3, except for (c) association with His-tag-huBTLA ([…]) for 420 sec.
# [3] = biological target: T1, human BTLA extracellular domain with …; assay: BLI (Octet RED96), antibody on AHC biosensor, His-tag-huBTLA in solution; column head prints nM, but Koff/Kon shows the values are in M
# Protocol: as §1, §2
# [4] = biological target: T3, human BTLA (Uniprot Q7Z6A9) expressed …; assay: flow cytometry on huBTLA-overexpressing Expi293 cells, MFI
# Protocol: Expi293 cells stably overexpressing huBTLA were incubated with the chimeric anti-BTLA antibodies 83F2 or 86B7 in PBS containing 0.5% BSA, 1 mM EDTA, and 0.1% sodium azide (FACS buffer) for 30 minutes at 4° C. The cells were washed, and then incubated with 10 nM phycoerythrin (PE) conjugated anti-Human Fc Ab (BioLegend, cat #409304) for 20 minutes at 4° C. Cells were washed and then analyzed by flow cytometry with Attune (ThermoFisher Scientific). Data were analyzed with FlowJo software. Antibody binding is represented as median fluorescence intensity (MFI).
# FACS based binding assays of humanized anti-BTLA antibodies were performed as described above in Example 3.
# [5] = biological target: T2, extracellular domain of human BTLA with …; assay: cell-based or functional assay
# [6] = biological target: T3, human BTLA (Uniprot Q7Z6A9) expressed …; assay: cell-based or functional assay
IC50 (read off the curve) [1],koff [2],kon [2],Kd [3],EC50 (read off the curve) [4],"EC50 of inhibition of huHVEM-Fc-induced apoptosis, Jurkat-huBTLA-FAS cells (ATP luminescence) [5]","EC50 of recovery of IL-2 production, Raji-HVEM/primary human T cell coculture [6]",Binder
~0.4 nM,9.19e-05 s⁻¹,307000 M⁻¹ s⁻¹,0.312 nM,~0.8 nM,–,–,"humanized anti-BTLA antibody SB2003-4 (antibody, V domains shown) VH: QITLKESGPTLVKPTQTLTLTCTFSGFSLSTFGMGVSWIRQPPGKALEWLAHIYWDDDKRFNPSLKSRLTITKDTSKNQVVLTMTNMDPVDTATYYCARGNWDGETYFDYWGQGTLVTVSS VL: DVVMTQSPLSLPVTLGQPASISCKSTQSLLDSDGKTYLNWLQQRPGQSPRSLIYLVSKLDSGVPDRFSGSGSGTDFTLKISRVEAEDVGVYYCWQGTHFPWTFGQGTKVEIK"
–,0.000109 s⁻¹,120000 M⁻¹ s⁻¹,0.797 nM,–,–,–,"humanized anti-BTLA antibody SB2003-2 (antibody, V domains shown) VH: QITLKESGPTLVKPTQTLTLTCTFSGFSLSTFGMGVSWIRQPPGKALEWLAHIYWDDDKRFNPSLKSRLTITKDTSKNQVVLTMTNMDPVDTATYYCARGNWDGETYFDYWGQGTLVTVSS VL: DVVMTQSPLSLPVTLGQPASISCKSTQSLLDSDGKTYLNWLQQRPGQSPRRLIYLVSKLDSGVPDRFSGSGSGTDFTLKISRVEAEDVGVYYCWQGTHFPWTFGQGTKVEIK"
–,8.06e-05 s⁻¹,134000 M⁻¹ s⁻¹,0.604 nM,–,–,–,"humanized anti-BTLA antibody SB2003-6 (antibody, V domains shown) VH: QVTLKESGPTLVKPTQTLTLTCTFSGFSLSTFGMGVSWIRQPPGKALEWLAHIYWDDDKRFNPSLKSRLTITKDTSKNQVVLTMTNMDPVDTATYYCARGNWDGETYFDYWGQGTLVTVSS VL: DVVMTQSPLSLPVTLGQPASISCKSTQSLLDSDGKTYLNWLQQRPGQSPRRLIYLVSKLDSGVPDRFSGSGSGTDFTLKISRVEAEDVGVYYCWQGTHFPWTFGQGTKVEIK"
–,5.76e-05 s⁻¹,366000 M⁻¹ s⁻¹,0.154 nM,–,–,–,"humanized anti-BTLA antibody SB2003-7 (antibody, V domains shown) VH: QVTLKESGPTLVKPTQTLTLTCTFSGFSLSTFGMGVSWIRQPPGKALEWLAHIYWDDDKRFNPSLKSRLTITKDTSKNQVVLTMTNMDPVDTATYYCARGNWDGETYFDYWGQGTLVTVSS VL: DVVMTQSPLSLPVTLGQPASISCKSTQSLLDSDGKTYLNWFQQRPGQSPRSLIYLVSKLDSGVPDRFSGSGSGTDFTLKISRVEAEDVGVYYCWQGTHFPWTFGQGTKVEIK"
~0.4 nM,4.99e-05 s⁻¹,384000 M⁻¹ s⁻¹,0.128 nM,~0.8 nM,0.117 nM,2.31 nM,"humanized anti-BTLA antibody SB2003-11 (antibody, V domains shown) VH: QVTLKESGPTLVKPTQTLTLTCTFSGFSLSTFGMGVSWIRQPPGKALEWLAHIYWDDDKRFNPSLKSRLTITKDTSKNQVVLTMTNMDPVDTATYYCAHGNWDGETYFDYWGQGTLVTVSS VL: DVVMTQSPLSLPVTLGQPASISCKSTQSLLDSDGKTYLNWFQQRPGQSPRSLIYLVSKLDSGVPDRFSGSGSGTDFTLKISRVEAEDVGVYYCWQGTHFPWTFGQGTKVEIK"
–,6.5e-05 s⁻¹,440000 M⁻¹ s⁻¹,0.148 nM,–,–,–,"humanized anti-BTLA antibody SB2003-9 (antibody, V domains shown) VH: QITLKESGPTLVKPTQTLTLTCTFSGFSLSTFGMGVSWIRQPPGKALEWLAHIYWDDDKRFNPSLKSRLTITKDTSKNQVVLTMTNMDPVDTATYYCAHGNWDGETYFDYWGQGTLVTVSS VL: DVVMTQSPLSLPVTLGQPASISCKSTQSLLDSDGKTYLNWFQQRPGQSPRSLIYLVSKLDSGVPDRFSGSGSGTDFTLKISRVEAEDVGVYYCWQGTHFPWTFGQGTKVEIK"
–,0.000179 s⁻¹,356000 M⁻¹ s⁻¹,0.551 nM,–,–,–,"humanized anti-BTLA antibody SB2003-10 (antibody, V domains shown) VH: QITLKESGPTLVKPTQTLTLTCTFSGFSLSTFGMGVSWIRQPPGKALEWLAHIYWDDDKRFNPSLKSRLTITKDTSKNQVVLTMTNMDPVDTATYYCAHGNWDGETYFDYWGQGTLVTVSS VL: DVVMTQSPLSLPVTLGQPASISCKSTQSLLDSDGKTYLNWLQQRPGQSPRSLIYLVSKLDSGVPDRFSGSGSGTDFTLKISRVEAEDVGVYYCWQGTHFPWTFGQGTKVEIK"
–,8.05e-05 s⁻¹,418000 M⁻¹ s⁻¹,0.198 nM,–,–,–,"humanized anti-BTLA antibody SB2003-8 (antibody, V domains shown) VH: QVTLKESGPTLVKPTQTLTLTCTFSGFSLSTFGMGVSWIRQPPGKALEWLAHIYWDDDKRFNPSLKSRLTITKDTSKNQVVLTMTNMDPVDTATYYCARGNWDGETYFDYWGQGTLVTVSS VL: DVVMTQSPLSLPVTLGQPASISCKSTQSLLDSDGKTYLNWLQQRPGQSPRSLIYLVSKLDSGVPDRFSGSGSGTDFTLKISRVEAEDVGVYYCWQGTHFPWTFGQGTKVEIK"
~0.4 nM,9.48e-05 s⁻¹,291000 M⁻¹ s⁻¹,0.308 nM,~0.8 nM,–,–,"humanized anti-BTLA antibody SB2003-3 (antibody, V domains shown) VH: QITLKESGPTLVKPTQTLTLTCTFSGFSLSTFGMGVSWIRQPPGKALEWLAHIYWDDDKRFNPSLKSRLTITKDTSKNQVVLTMTNMDPVDTATYYCARGNWDGETYFDYWGQGTLVTVSS VL: DVVMTQSPLSLPVTLGQPASISCKSTQSLLDSDGKTYLNWFQQRPGQSPRSLIYLVSKLDSGVPDRFSGSGSGTDFTLKISRVEAEDVGVYYCWQGTHFPWTFGQGTKVEIK"
